B1: TPR t1 (parent)
chain: GACCAAUCUGCCCUCAGAGCUCGAGAACAUCUUCGGAUGCAGAGGAGGCAGGCUUCGGUGGCGCGAUAGCGCCAACGUCCUCAACCUCCAAUGCAUCCCACCACAUGAUGAUGCCUGAAGAGCCUUGGUUUUUUG

Variants of: B1
Experiment: polymerase ribozyme fitness, log enrichment relative to wild type (log ratio); higher = more active; in vitro selection for triplet polymerase activity
Outline: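 A single round of triplicate in vitro selection, including frozen incubation at −7 °C, was applied to PCR-built, transcribed mutant libraries of each subunit of a heterodimeric triplet polymerase ribozyme. Illumina sequencing of input and output libraries retained genotypes with ≥10 input reads and ≥1 read per output. Fitness is the base-2 logarithm of genotype enrichment divided by wild-type enrichment, from inverse-variance-weighted replicate averages.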

| Variant | polymerase ribozyme fitness (log ratio) |
| --- | --- |
| GACCAAUCUGCCCUCAGAGCUCGAGAACAUCUUCGGAAGCAGAGGAGGCAGGCUUCGGUUGAGCGAUAGCGCCUACGUCCUCAACCUCCAAUGCAUCCCACCACAUGAUGAUGCGUGAAGAGCCUUGGUUUUUUG | -6.4 |
| GACCAAUCUGCCCUCAGAGCUCGAGAACAUCUUCGGAAGCAGAGGAGGCAGGCUUCGGUGGCGCGAUAGCGCUAACGUCCUCAACCUCCAAUGCAUCCCACCACAUGAUGAUGCCUGAAGAGCCUUGGUUUUUUG | -2.86 |
| GACCAAUCUGCCCUCAGAGCUCGAGAACAUCUUCGGUUGCAGAGGAGGCAGGCUUCGGUGGCGCGAUAGCGCCAACGUCCUCAACCUCCAAUGCAUCCCACCACAGGAUGAUGCCUGAAGAGGCUUGGUUUUUUG | 0.0565 |
| GACCAAUCUGCCCUCAGAGCUCGAGAACAUCUUCGGUUGCAGAGGAGGCAGGCUUCGGUGGCGCGAUAGCGCCAACGCCCUCAACCCCCAAUGCAUCCCACCACAUGAUGAUGCCUGAAGAGCCUUGGUUUUUUG | 0.269 |
| GACCAAUCUGCCCUCAGAGCUCGAGAACAUCUUCGGAAGCAGAGGAGGCAGGCUUCGGUGGCGCGAUAGCGGCAACGUCCUCAACUUCCAAUGCAUCCCACCACAUGAUGAUGCCUGAAGAGCCUUGGUUUUUUU | -3.57 |
| GACCAAUCUGCCCUCAGAGCUCGAGAACAUCUUCGGAAACAGAGGAGGCAGGCUUCGGUGUCGCGAUAGCGCCAACGUCCUCAACCUCCAAUGCAUCCCACCACAUGAUGAUGCCUGAAGAGCCUUGGUUUUUUG | -1.2 |
| GACCAAUCUGCCCUCAGAGCUCGAGAACAUCUUCGGAAGAAGAGGAGGCAGGCUUCGGUGGCGCGAUAGCGCCAACGUCCUCAACCUCCAAUUCAUCCCACCACAUGAUGAUGCCUGAAGAGCCUUGGUUUUUUG | -0.915 |
| GACCAAUCUGCCCUCAGAGCUCGAGAACAUCUUCGGACGCAGAGGUGGCAGGCUUCGGUGGCGCGAUAGCGCCAACGUCCUCAACCUCCAAUGCAUCCCCCCACAUGAUGAUGCCUGAAGAGCCUUGGUUUUUUG | -4.28 |
| GACCAAUCUGCCCUCAGAGCUCGAGAACAUCUUCGGUUGCAGAGGAGGCAGGCUUCGGUGGCGCGAUAGCUCCAACGUCCUCAACCUCCAAUGCAUCCCACCACAUGAUGAUGCCUGAAGAGCCUUGGUUUUUUG | -0.54 |
| GACCAAUCUGCCCUCAGAGCUCGAGAACAUCUUCGGAAGCAGAGGAGGCAGGCUUCGGUAGCGCGAUAGCGCCAACGUCCUCAACCUCCAAUGCAUCCCACCACAUGAUGAUGCCUGAAGCGCCUUGGUUUUUUU | -1.36 |
| GACCAAUCUGCCCUCAGAGCUCGAGAACAUCUUCGGAAGCAGAGGAGGCAGGCUUCGGUGGCGCGAUAGCUCCAACGUCUUCAACCUCCAAUGCGUCCCACCACAUGAUGAUGCCUGAAGAGCAUUGGUUUUUUG | -0.159 |
| GACCAAUCUGCCCUCAGAGCUCGAGAACAUCUUCGGAGGCAGAGGUGGCAGGCUUCGGUGGCGCGAUAGCGCCAACUUCCUCAACCUCCAAUGCAUCCCACCACAUGAUGAUGCCUGAAGAGCUUUGGUUUUUUG | -1.67 |
| GACCAAUCUGCCCUCAGAGCUCGAGAACAUCUUCGGAAGCAGAGGAGGCUGGCUUCGGUGGCGCGAUAGCGCGAACGUCCUCAACCUCCAAUGCAUCCCACCACAUGAUGAUGCCUGAAGUGCCUUGGUUUUUUG | -0.841 |
| GACCAAUCUGCCCUCAGAGCUCGAGAACAUCUUCGGAAGCAGAGGAGGCAGGCGUCGGUGGCGCGAUAGCGCCAACGUCCUCAACCUCCAAUGCAUCCCACCACAUGAUGACGCCUGAAAAGCCUUGGUUUUUUG | -0.498 |
| GACCAAUCUGCCCUCAGAGCUCGAGAACAUCUUCGGACGCACAGGAGGCAGGCUUCGGUGGCGCGAUAGCGCCAACGACCUCACCCUCCAAUGCAUCCCACCACAUGAUGAUGCCUGAAGAGCCUUGGUUUUUUG | -3.16 |
| GACCAAUCUGCCCUCAGAGCUCGAGAACAUCUUCGGUUGCAGAGGAGGCAGGCUUCGGUGGCGCGAUAGCGCCAACGUCCUCAACCUCCAAUGCAUCCCACCACAUGAUGAUGCCUGAAGAGCCGUGGUUUUUUG | -1.07 |
| GACCAAUCUGCCCUCAGAGCUCGAGAACAUCUUCGGUUGCAGAGGAGGCAGGCUUCGGUGGCUCGAUAGCGCCAACGUCCUCAACCUCCAAUGCAUCCCACCACCUGAUGAUGCCUGAAGAGCCUUGGUUUUUUG | -5.31 |
| GACCAAUCUGCCCUCAGAGCUCGAGAACAUCUUCGGAGGCAGAGGAGGCAGGCUUCGGUGGCGCGAUAGCGCCAACGUCCUCAACCUCCUAUGCAUCCCACCACAUGAUGAUGCCUGAAGAGCCUUGGUUUUUUG | -1.61 |
| GACCAAUCUGCCCUCAGAGCUCGAGAACAUCUUCGGUUGCAGAGGAGGCAGGCUUCGGUGGCGCGAUAGCGCCAACGUCCUCAACCUCCAACGCAUCCCACCACAUGAUGAUGCCUGAAGAGCCUUGGUUUUUUG | -1.28 |
| GACCAAUCUGCCCUCAGAGCUCGAGAACAUCUUCGGAAGCAGAGGAGGCUGGCUUCGGUGGUGCGAUAGCGCCAACGUCCUCAACCUCCAAUGCAUCCCACCACAUGAUGAUGCCUGAAGAGGCUUGGUUUUAUG | -1.2 |
| GACCAAUCUGCCCUCAGAGCUCGAGAACAUCUUCGGAAGCAGAGGAGGCAGGCUUCGGUGGCACGAUAGCGCCAACGUCCUCAACCUCCAAUGCAUCCCACCACAUGAUGAUGCCUGAAGAGCCUUGGUUUUUUG | -2.12 |
